This assay has as its target CDC5L–GFP (UniProt Q99459). The assay is described as follows: affinity purification with mass spectrometry.

Chain of HSP70 (P11142 whole entry): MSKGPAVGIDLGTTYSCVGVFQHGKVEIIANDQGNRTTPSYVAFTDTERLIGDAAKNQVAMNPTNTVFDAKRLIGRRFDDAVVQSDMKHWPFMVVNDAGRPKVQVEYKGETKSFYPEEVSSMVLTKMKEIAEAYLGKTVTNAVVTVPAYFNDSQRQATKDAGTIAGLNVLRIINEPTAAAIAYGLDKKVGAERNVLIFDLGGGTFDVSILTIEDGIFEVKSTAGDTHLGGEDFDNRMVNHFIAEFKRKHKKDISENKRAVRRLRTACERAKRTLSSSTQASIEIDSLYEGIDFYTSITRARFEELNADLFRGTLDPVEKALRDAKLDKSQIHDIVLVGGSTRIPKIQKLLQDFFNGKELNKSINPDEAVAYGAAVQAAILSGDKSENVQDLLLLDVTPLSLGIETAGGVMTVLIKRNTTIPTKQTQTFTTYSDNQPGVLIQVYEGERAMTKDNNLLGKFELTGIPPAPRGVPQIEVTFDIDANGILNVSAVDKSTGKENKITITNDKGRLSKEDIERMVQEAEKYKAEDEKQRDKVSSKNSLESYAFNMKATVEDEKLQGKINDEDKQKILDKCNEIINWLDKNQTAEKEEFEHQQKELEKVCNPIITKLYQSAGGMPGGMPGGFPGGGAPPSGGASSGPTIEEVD
Chain of CDC5L–GFP (Q99459 whole entry): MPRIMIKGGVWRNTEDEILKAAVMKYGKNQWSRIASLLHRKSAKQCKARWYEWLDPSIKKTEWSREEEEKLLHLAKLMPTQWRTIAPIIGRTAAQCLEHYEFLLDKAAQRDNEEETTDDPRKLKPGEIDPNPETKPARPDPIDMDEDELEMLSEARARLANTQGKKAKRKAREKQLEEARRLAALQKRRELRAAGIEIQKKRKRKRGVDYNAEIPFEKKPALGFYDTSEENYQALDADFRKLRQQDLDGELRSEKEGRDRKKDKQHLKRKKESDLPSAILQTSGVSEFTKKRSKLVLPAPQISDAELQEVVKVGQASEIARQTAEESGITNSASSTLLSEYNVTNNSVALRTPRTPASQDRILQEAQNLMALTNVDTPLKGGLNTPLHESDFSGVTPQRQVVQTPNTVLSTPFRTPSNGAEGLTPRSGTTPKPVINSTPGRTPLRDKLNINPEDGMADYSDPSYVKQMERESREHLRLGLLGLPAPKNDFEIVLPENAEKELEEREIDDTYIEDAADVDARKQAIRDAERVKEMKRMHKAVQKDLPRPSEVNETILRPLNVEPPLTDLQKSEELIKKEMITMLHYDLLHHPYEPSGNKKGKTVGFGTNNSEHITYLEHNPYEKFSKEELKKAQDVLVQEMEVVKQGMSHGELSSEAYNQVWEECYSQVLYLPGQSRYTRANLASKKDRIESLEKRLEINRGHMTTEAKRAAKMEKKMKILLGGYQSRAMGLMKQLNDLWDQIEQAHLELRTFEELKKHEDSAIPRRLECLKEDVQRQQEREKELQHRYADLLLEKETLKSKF

Regarding “HSP70 (from UniProt P11142 1-646) (natural protein)”, the stoichiometry N (relative to CDC5L) turned out to be 0.2 and the stoichiometry with CDC5L as a dimer (CDC5L 2) (per CDC5L dimer) was found to be 0.4.
